Our source for the decrease in cell proliferation of OV90 cells (MTT) with PIP values is patent publication US7405061.

In this assay the target is antigen PIPA (human). Put plainly: cell-based or functional assay.

B1: monoclonal antibody PIP (antibody, V domains shown)
V domain 1: DVQLQESGPDLVKPSQSVSLTCTVTGYSITSGYGWHWIRQFPGNKLEWMGCIHYSGSTNYNPSLKSRISVTRDTSKNQFFLQLNSVTTEDTATYYCARREYGNYAMDYWGQGTSVTVSS
V domain 2: DVQLQESGPDLVKPSQSVSLTCTVTGYSITSGYGWHWIRQFPGNKLEWMGCIHYSGSTNYNPSLKSRISVTRDTSKNQFFLQLNSVTTEDTATYYCARREYGNYAMDYWGQGTSVTVSS
B1 displayed a decrease in cell proliferation of OV90 cells (MTT) with PIP at 10 ug/ml and MAb-ZAP saporin-linked secondary antibody of 50 percent.
